From publication PMC5849714, “Direct coupling of detergent purified human mGlu5 receptor to the heterotrimeric G proteins Gq and Gs” (Scientific Reports, 2018)

Columns and labels:
[1] = target: mGlu5-Δ856 (construct for large-scale purification, devoid of eGFP) (human) (UniProt P41594)
[2] = target: mGlu5-Δ856 (construct for large-scale purification, devoid of eGFP) (human) (UniProt P41594); test: SEC; purified receptor on Superose 6 increase in MNG3/CHS

Gαqβ1γ2, sequence (P50148 whole entry): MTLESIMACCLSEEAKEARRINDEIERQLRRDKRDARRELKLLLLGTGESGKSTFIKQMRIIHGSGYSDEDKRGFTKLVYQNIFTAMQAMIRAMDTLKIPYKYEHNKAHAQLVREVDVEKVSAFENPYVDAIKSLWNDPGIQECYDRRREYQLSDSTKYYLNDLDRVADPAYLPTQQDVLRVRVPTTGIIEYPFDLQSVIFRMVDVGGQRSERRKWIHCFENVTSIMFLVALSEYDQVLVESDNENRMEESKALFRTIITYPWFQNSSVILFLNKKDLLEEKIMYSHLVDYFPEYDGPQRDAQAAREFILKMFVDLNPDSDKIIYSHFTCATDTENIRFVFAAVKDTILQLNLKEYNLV
Gαqβ1γ2, sequence (P62873 whole entry): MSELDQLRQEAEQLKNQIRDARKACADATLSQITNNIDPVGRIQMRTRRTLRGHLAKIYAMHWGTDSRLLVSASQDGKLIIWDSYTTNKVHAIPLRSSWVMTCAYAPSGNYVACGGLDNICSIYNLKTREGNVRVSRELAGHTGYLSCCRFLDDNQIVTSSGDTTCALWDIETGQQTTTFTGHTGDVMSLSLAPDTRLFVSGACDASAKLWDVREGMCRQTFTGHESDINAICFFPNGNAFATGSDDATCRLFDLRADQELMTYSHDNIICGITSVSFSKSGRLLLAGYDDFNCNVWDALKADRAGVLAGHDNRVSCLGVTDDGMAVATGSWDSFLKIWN
Gαqβ1γ2, sequence (P59768 whole entry): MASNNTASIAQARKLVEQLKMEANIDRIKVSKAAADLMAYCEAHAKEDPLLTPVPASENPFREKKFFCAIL

Row | Bodipy-FL GTPγS fluorescence, purified receptor in detergent, glutamate and VU0424465 together: increase of the maximum response [1] [%] | stoichiometry N [2] | Substance
1 | 30 | – | Gαqβ1γ2 (from UniProt P50148 1-359; P62873 1-340; P59768 1-71) (complex)
2 | – | 2 | mGlu5-Δ856 (construct for large-scale purification, devoid of eGFP) (from UniProt P41594-2 21-856) (receptor)
